# From the nanobody polyreactivity screen of Harvey et al. (2022)
# Assay: yeast display, Sf9 membrane polyspecificity reagent, FACS + sequencing; frameworks hold sequencing errors
# In short: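 Nanobodies from a synthetic yeast display library (Saccharomyces cerevisiae BJ5465), induced 36–48 hours with galactose, were stained 1 hour at 4 °C with 10% biotinylated, detergent-solubilized Sf9 membrane reagent, enriched on streptavidin microbeads, then FACS-sorted. Anti-HA (expression) and streptavidin (reagent binding) fluorescence set low and high (top ~1%) gates. Polyreactivity labels come from the gate of origin. Genes were colony-PCR amplified, MiSeq 2 × 250 sequenced and filtered by CDR length.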
row,Sequence,polyreactivity (PSR sort gate)
1,QVQLVESGGGLVQAGGSLRLRCAASGSTFKFYAMGWYRQAPGKEREFVAAITGSGGSTYYADSVKGRFTISRDNAKNTVYLQMNSLKPEDTAVYYCNTTPVLQLYYWGQGTQVTVSS,low polyreactivity
2,QVQLVESGGGLVQAGGSLRLRCAASGSTFQRYAMGWYRQAPGKERELVAAITWSGGSTKYADSVKGRFTISRDNAKTTVYLQMNCLKPEDTAVYYCARTYLSSRWGQGTQVTVSS,low polyreactivity
3,QVQLVESGGGLVQAGGSLRLRCAASGSTFRANAMGWYRQAPGKERELVAAISWSGGRTYYADSVKGRFTISRDNAKNTVYLQMNSLKPEDTAVYYCAAPKLTSYDSWGQGTQVTVSS,high polyreactivity
4,QVQLVESGGGLVQAGGSLRLRCAASGSTFSGYAMGWYRKGPGKERELVAAISSGGGSTYYADSVKGRFTISRYNAKNTVYLQMNSLKPEDTDVYYCATGYPWYCGQGTQVTVSS,high polyreactivity
5,QVQLVESGGGLVQAGGSLRLRCAASGSTFTGNTMGWYRQAPGKERELVAAITYRGGSTYYADSVKGRLTISRDNAKNTVYLQMNSLKPEDTAVYYCAAAGYYYSVEGAGPRYDYWGQGTQVTVSS,low polyreactivity
6,QVQLVESGGGLVQAGGSLRLRCAASGSTSPFNAMGWYRQAPGKERELVASITSSGSTNYADSVKGRFTISRDNAKNTVYLQINSLKPEDTAVYYCASEGVVSETFYAYWGQGTQVTVSS,low polyreactivity
7,QVQLVESGGGLVQAGGSLRLRCAATGFISVTYAMGWYRQAPGKERELVAAITYSGGSTYYADSVKGRFTISRDNAKNTVYLQMNSLKPEDTAVYYCATEPQSDYSYDYWGQGTQVTVSS,low polyreactivity
8,QVQLVESGGGLVQAGGSLRLRCAATGHIFYYYTMGWSRQAPGKERELVAGITIGGSTNYADSVKGRFTISRDNAKNTVYLQMKSLKPEDTAVYYCNVVKYVYIYSYWEYYYWGQGTQVTVSS,low polyreactivity
9,QVQLVESGGGLVQAGGSLRLRCADSGRTFRYNAMGWYRQAPGKERELVAGIRWSGDRTYYADSVKGRFTISHDNAKNTVYLQMNSLKPEDTAVYSCNKVYHPGYGVRATYDYWGQGTQVTVSS,high polyreactivity
10,QVQLVESGGGLVQAGGSLRLRGAASGFTYLYYAMGWYRQAPGKERELVAAITWSGDSTYYADSVKGRFTISRDNAKNTVYLQMNSLKPEDTAVYYCANGGVTFGTVVRGVDGDYWGQGTQVTVSS,low polyreactivity
11,QVQLVESGGGLVQAGGSLRLRGAASGGIISSYVLGWYRQAPGKERELVAAISRSGGSTYYADSVKGRFTISRDNAKNTVNLQMNSLKPEDTAVYYCAAVLQTRYNYWGQGTQVTVSS,high polyreactivity
12,QVQLVESGGGLVQAGGSLRLRWAASGRIFHHYAMGWYRPAPGKERELVAAISSGGSTYYADSVKGRFTISRDNAKNTVYLQMNSLKPEVTAVYYCAAYWYSPEYDYWGQGTQVTLSS,high polyreactivity
13,QVQLVESGGGLVQAGGSLRLRWAASGRIFLNYAMGLYRQEPGKEREVVAAISRTGGRKYYADSVKGRFTISRDTEKNTVYLQMYSLKPEDTAVYYCDAYYSGFLTYGLDYWGQGTQVTLSS,high polyreactivity
14,QVQLVESGGGLVQAGGSLRLSAASGSTLAGNTMGWYRQAPGKERELVAAINDSGGSTYYADSVKGRFTISRDNAKNTVYLQMNSLKPEETAVYYCNADGSAYIEDGYDYWGQGTQVTVSS,low polyreactivity
15,QVQLVESGGGLVQAGGSLRLSCAAAARTFPYNAMGWYRQAPGQERELVATISRRTGTTYYADSVKGRFTISRDNAKNTVYLQMNSLKPEDTAVYFCAATGFGLRRLFRGDYWGQGTQVTVSS,high polyreactivity
16,QVQLVESGGGLVQAGGSLRLSCAAAGFTFSVNAMGWYRQAPGKERELVAAISSRGSITYYADSVKGRFTISRDNAKNTVYLQMNSLKPEDTAVYYCNAYKYKSPGDYWGQGTQVTVSS,high polyreactivity

row,Sequence,polyreactivity (PSR sort gate)
1,QVQLVESGGGLVQAGGSLRLSCAACGFTFWKYAMGWYRQAPGKERELVAAITSGGNTYYADSVKGRFTISRDNAKNTVYLQMNSLKPEDTAVYYCATSGPRGWSLHDYWGQGTQVTVSS,high polyreactivity
2,QVQLVESGGGLVQAGGSLRLSCAACGRIFGYYAMGWYRQAPGKERELVAAITGVGRTNYADSVKGRFTISRDNAKNTVYLQMNSLKPEDTAVYYCNVVRVYRYDYWGQGTQVTVSS,high polyreactivity
3,QVQLVESGGGLVQAGGSLRLSCAACGRTFGWYAMGWYRQAPGTERELVATISSRGGATYYADSVKGRFTISRDNAKNTVYFQMNSLKPEDTAVYYCAAYSRTFEGHRGGYWGQGTQVTVSS,high polyreactivity
4,QVQLVESGGGLVQAGGSLRLSCAACGRTLVRYAMGWYRQAPGKERELVATITRGGSTNYADSVKGRFTISRDNAKNTVYLQMNSLKPEDTAVYYCARDLYYSSRYSPYGRYDYWGQGTQVTVSS,high polyreactivity
5,QVQLVESGGGLVQAGGSLRLSCAACGRTSSIYAMGWYRQAPGKERELVATITGGAVSTSYADSVKGRFTISRDNAKNTVYLQMNSLKPEDSAVYYCADDHWRYRSRPVNYWGLGTQVTVSS,high polyreactivity
6,QVQLVESGGGLVQAGGSLRLSCAACGSIFDYYTMGWYRQAPGKEREFVAGISDSGGSTNYADSVKGRFTISRDNAKNTVYLQINSLKPEDTAVYYCNAEYVGWFYKYDYWGQGTQVTVSS,high polyreactivity
7,QVQLVESGGGLVQAGGSLRLSCAACGSIIYRNAMGWYRPAPGKERELVAAIRTSSGSTYYADSVKGRFTISRDNAKNTVYLQMNSLKPEDTAVYYCAAPRLYGYYSWGQGTQVTVSS,low polyreactivity
8,QVQLVESGGGLVQAGGSLRLSCAACGSTFFRNAMGWYRQAPGKERELVAAISKSGTSTYYADSVKGRFTISRDNAKNTVYLQMNSLKPEDTAVYYCAADSRYPWRGDYWGQGTQVTVSS,high polyreactivity
9,QVQLVESGGGLVQAGGSLRLSCAAMGWYRPAPGKERELVATITWSGGSTYYADSVKGRFTISRDNAKNTVYLQMNSLKPEDNAVYYCNARATLLSPANTIRGYDYWGQGTQVTVSS,low polyreactivity
10,QVQLVESGGGLVQAGGSLRLSCAAPGSTFVRYAMGWYRQAPGKERELVAAISKSGGSTYYADSVKGRFTISRDNAKNTVYLQMYSLKPEDTAVYYCAATTTRYSYEYWGQGTQVTVSS,low polyreactivity
11,QVQLVESGGGLVQAGGSLRLSCAASAFTFGNYAMGWYRQAPGKERELVAVISRGGSTYYADSVKGRFTISRDYAKNTVYLQMNSLKPEDTAVYFCAARAFPPYGYDYWGQGTQVTVSS,high polyreactivity
12,QVQLVESGGGLVQAGGSLRLSCAASAFTFYSNAMGWYRQAPGTEREVVASISASGGSTYYADSVKGRFTISRDNAKNSVYLQMNSLKPEDTAVYYCAVYWSYLFDYLGQGTQVTVSS,high polyreactivity
13,QVQLVESGGGLVQAGGSLRLSCAASAFTLARYAMGWYRQAPGKERELVAAITKRGGSTYYADSVKGRFTISRDNAKKTVYLQMNSLKPEDTAVYYCNGASRYSQTFEFDYWGQGTQVTVSS,high polyreactivity
14,QVQLVESGGGLVQAGGSLRLSCAASAFTLYPYAKGWYRQAPGKERELVAAISGSGGSTYYADSVKGRFTISRDNAKNTVYLQMNRLKPEDTAVYYCAARYLDVRPFYYWGQGTQVTVSS,high polyreactivity
15,QVQLVESGGGLVQAGGSLRLSCAASAGIIRTYAMGWYRQAPGKEMELVAAITFSAGSTFYADSVKGRFTISRDNAKNTVYLQMNSLKPEDTAVYYCNKDGGGDSYWYDYWGQGTQVTVSS,low polyreactivity
16,QVQLVESGGGLVQAGGSLRLSCAASAITLDGNAMGWYIQAPGKERELVAAITSGGGTNYADSVKGRFTISRDNAKNTVYLEMNSLKQEDTAVYYCAETGRLLTSNYWGLGTQVTVSS,low polyreactivity
